In patent publication US20160152676A1 (COLORADO STATE UNIVERSITY RESEARCH FOUNDATION, published 2016):

What was measured:
5-Helix-His6x [1] = target: T1, 5-Helix-His6x (HIV-1); test: ELISA on E. coli lysate, His6-tagged 5-helix captured on Ni-NTA plates, anti-FLAG detection
T1 construct: also called His6-tagged 5-helix; 5-Helix bundle

5-Helix-His6x [2] = target: T1, 5-Helix-His6x; test: Ni-NTA co-purification from E. coli lysate, densitometry of the protein bands
5-Helix-His6x [3] = target: T1, 5-Helix-His6x; test: circular dichroism of a 1:1 mixture, wavelength scan and thermal melt
[4] = target: T2, AviTag-5-helix-His6x, biotinylated (HIV-1, biotin conjugated to the AviTag with BirA); test: ELISA, biotinylated 5-helix on streptavidin plates, 50 nM GLUE-Cpep pre-incubated in human serum, anti-FLAG detection
T2 construct: also called Biotinylated 5-helix; AviTagged 5-helix; not shown: N-terminal AviTag and any linker

B1: FLAG-CHR (peptide)
peptide: MDYKDDDDKGGSWMEWDREINNYTSLIHSLIEESQNQQEKNEQELL
notes: Co-expressed with 5-Helix-His6x in E. coli; also called C-peptide; native C-peptide
binding result (5-Helix-His6x [1]): binds

B2: FLAG-GLUE (other)
chain: MDYKDDDDKGGSEYWHYVETTSSGQPLLREGEKDIFIDQSVGLYHGKSKILQRQRGRIFLTSQRIIYIDDAKPTQNSLGLELDDLAYVNYSSGFLTRSPALILFFKDPSSSTEFVQLSFRKSDGVLFSQATERALENILT
notes: Co-expressed with 5-Helix-His6x in E. coli; lysate ELISA; also called wtGLUE; wt-GLUE
binding result (5-Helix-His6x [1]): no binding

B3: GLUE-Cpep (untagged) (designed binder)
chain: MEYWHYVETTSSGQPLLREGEKDIAIDQSVGLYHGKSKILQRQRGRIFLTSQRIIYIDDAKPTQNSLGLELDDLAYVNYSSGFLTRSPALILFFKDPSSSTEFVQLSFRKSDGVWFSWATEIALYTILIHSLIEESQNQQEKNEQELL
notes: Co-expressed with 5-Helix-His6x in E. coli; also called untagged GLUE-Cpep
ratio of proteins in the complex (stoichiometry) (5-Helix-His6x [2]): 1 ratio (1:1)

B4: His6x-GLUE-Cpep (designed binder)
chain: MGSSHHHHHHSQDPGLNDIFEAQKIEWHEGGSGGSGGTEYWHYVETTSSGQPLLREGEKDIAIDQSVGLYHGKSKILQRQRGRIFLTSQRIIYIDDAKPTQNSLGLELDDLAYVNYSSGFLTRSPALILFFKDPSSSTEFVQLSFRKSDGVWFSWATEIALYTILIHSLIEESQNQQEKNEQELL
notes: Purified construct used in CD; also called helix-grafted GLUE
binding result (5-Helix-His6x [3]): binds

B5: FLAG-GLUE-Cpep (pET-28a construct, His6x-FLAG-GLUE-Cpep) (designed binder)
chain: MGSSHHHHHHSSGLVPRGSHMDYKDDDDKGGSEYWHYVETTSSGQPLLREGEKDIAIDQSVGLYHGKSKILQRQRGRIFLTSQRIIYIDDAKPTQNSLGLELDDLAYVNYSSGFLTRSPALILFFKDPSSSTEFVQLSFRKSDGVWFSWATEIALYTILIHSLIEESQNQQEKNEQELL
notes: Purified, pre-incubated with human serum, then tested in ELISA on biotinylated 5-helix
binding result [4]: binds

B6: FLAG-GLUE-Cpep (designed binder)
chain: MDYKDDDDKGGSEYWHYVETTSSGQPLLREGEKDIAIDQSVGLYHGKSKILQRQRGRIFLTSQRIIYIDDAKPTQNSLGLELDDLAYVNYSSGFLTRSPALILFFKDPSSSTEFVQLSFRKSDGVWFSWATEIALYTILIHSLIEESQNQQEKNEQELL
notes: Co-expressed with 5-Helix-His6x in E. coli; lysate ELISA; also called grafted GLUE; helix-grafted GLUE
binding result (5-Helix-His6x [1]): binds
